The values below come from the supplement of paper PMC6755084.

Sequences and labels used below:
B1: F1*; the commonest letter at each place (parent)
chain: GAGACCGCAACTGAAAAGTTGTTATCACTTGTCGTAAGACACTTTGGATGGGTTGAAGTTCTGCACGTAGAAGCAAAAGGC

The data set covers variants of B1. In words: fraction ligated after 30 min (ligated reads / total reads); higher = more ligase activity. Conditions: with F1*sub RNA substrate (template-directed ligation), 42 °C. A digest of the protocol: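 Oligo-pool templates underwent PCR amplification, T7 transcription and gel purification to yield ribozyme variants. Gel-separated ligated and unligated bands were converted to complementary DNA with barcoded primers and sequenced on a MiSeq, keeping core bases of quality ≥20. The ratio of ligated reads to total reads gave the fraction ligated for every variant.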
For the variant GAGACCGCAACTGAAAAGTTGTTATCACTTGCCGTAAGACAATTTGGATGGGTTGAAGTTCTGCACGTAGAAGCAAAAGGC, the fraction ligated turned out to be 0.826.
The value for GAGACCGCAACTGAAAAGTTGTTATCACTTGCCGTAAGACAGTTTGGATGGGTTGAAGTTCTGCACGTAGAAGCAAAAGGC was 0.806.
In the case of GAGACCGCAACTGAAAAGTTGTTATCACTTGCCGTAAGACATTTTGGATGGGTTGAAGTTCTGCACGTAGAAGCAAAAGGC it was 0.842; in that of GAGACCGCAACTGAAAAGTTGTTATCACTTGCCGTAAGACACTTTGGATTGGTTGAAGTTCTGCACGTAGAAGCAAAAGGC, 0.273; in that of GAGACCGCAACTGAAAAGTTGTTATCACTTGCCGTAAGACACTTTGGATCGGTTGAAGTTCTGCACGTAGAAGCAAAAGGC, 0.0903.
In the case of GAGACCGCAACTGAAAAGTTGTTATCACTTGCCGTAAGACACTTTGGATAGGTTGAAGTTCTGCACGTAGAAGCAAAAGGC it was 0.216; in that of GAGACCGCAACTGAAAAGTTGTTATCACTTGCGGTAAGACACTTTGGATGGGTTGAAGTTCTGCACGTAGAAGCAAAAGGC, 0.797.
Take GAGACCGCAACTGAAAAGTTGTTATCACTTGCTGTAAGACACTTTGGATGGGTTGAAGTTCTGCACGTAGAAGCAAAAGGC: the fraction ligated turned out to be 0.849.
For the variant GAGACCGCAACTGAAAAGTTGTTATCACTTGCAGTAAGACACTTTGGATGGGTTGAAGTTCTGCACGTAGAAGCAAAAGGC, the fraction ligated is 0.863.
In the case of GAGACCGCAACTGAAAAGTTGTTATCACTTGCCATAAGACACTTTGGATGGGTTGAAGTTCTGCACGTAGAAGCAAAAGGC it was 0.796; in that of GAGACCGCAACTGAAAAGTTGTTATCACTTGCCCTAAGACACTTTGGATGGGTTGAAGTTCTGCACGTAGAAGCAAAAGGC, 0.772.
In the case of GAGACCGCAACTGAAAAGTTGTTATCACTTGCCTTAAGACACTTTGGATGGGTTGAAGTTCTGCACGTAGAAGCAAAAGGC it was 0.759.
The value for GAGACCGCAACTGAAAAGTTGTTATCACTTGCCGTAAGACACTTTGTATGGGTTGAAGTTCTGCACGTAGAAGCAAAAGGC was 0.103; that for GAGACCGCAACTGAAAAGTTGTTATCACTTGCCGTAAGACACTTTGCATGGGTTGAAGTTCTGCACGTAGAAGCAAAAGGC was 0.0784.
Consider GAGACCGCAACTGAAAAGTTGTTATCACTTGCCGTAAGACACTTTGAATGGGTTGAAGTTCTGCACGTAGAAGCAAAAGGC, for which the fraction ligated is 0.669.
In the case of GAGACCGCAACTGAAAAGTTGTTATCACTTGCCGTAAGACACTTTGGATGGGTTGGAGTTCTGCACGTAGAAGCAAAAGGC it was 0.738; in that of GAGACCGCAACTGAAAAGTTGTTATCACTTGCCGTAAGACACTTTGGATGGGTTGCAGTTCTGCACGTAGAAGCAAAAGGC, 0.727; in that of GAGACCGCAACTGAAAAGTTGTTATCACTTGCCGTAAGACACTTTGGATGGGTTGTAGTTCTGCACGTAGAAGCAAAAGGC, 0.766.
In the case of GAGACCGCAACTGAAAAGTTGTTATCACTTGCCGTAAGACACGTTGGATGGGTTGAAGTTCTGCACGTAGAAGCAAAAGGC it was 0.729; in that of GAGACCGCAACTGAAAAGTTGTTATCACTTGCCGTAAGACACCTTGGATGGGTTGAAGTTCTGCACGTAGAAGCAAAAGGC, 0.782; in that of GAGACCGCAACTGAAAAGTTGTTATCACTTGCCGTAAGACACATTGGATGGGTTGAAGTTCTGCACGTAGAAGCAAAAGGC, 0.779.
In the case of GAGACCGCAACTGAAAAGTTGTTATCACTTGCCGTAAGACACTTTGGATGGGTTTAAGTTCTGCACGTAGAAGCAAAAGGC it was 0.75.
GAGACCGCAACTGAAAAGTTGTTATCACTTGCCGTAAGACACTTTGGATGGGTTAAAGTTCTGCACGTAGAAGCAAAAGGC: the fraction ligated stood at 0.771.
The value for GAGACCGCAACTGAAAAGTTGTTATCACTTGCCGTAAGACACTTTGGATGGGTTCAAGTTCTGCACGTAGAAGCAAAAGGC was 0.664; that for GAGACCGCAACTGAAAAGTTGTTATCACTTGCCGAAAGACACTTTGGATGGGTTGAAGTTCTGCACGTAGAAGCAAAAGGC was 0.811; that for GAGACCGCAACTGAAAAGTTGTTATCACTTGCCGGAAGACACTTTGGATGGGTTGAAGTTCTGCACGTAGAAGCAAAAGGC was 0.808.
For GAGACCGCAACTGAAAAGTTGTTATCACTTGCCGCAAGACACTTTGGATGGGTTGAAGTTCTGCACGTAGAAGCAAAAGGC, the fraction ligated was found to be 0.829.
In the case of GAGACCGCAACTGAAAAGTTGTTATCACTTGCCGTAAGACACTTTGGGTGGGTTGAAGTTCTGCACGTAGAAGCAAAAGGC it was 0.75.
The value for GAGACCGCAACTGAAAAGTTGTTATCACTTGCCGTAAGACACTTTGGTTGGGTTGAAGTTCTGCACGTAGAAGCAAAAGGC was 0.114; that for GAGACCGCAACTGAAAAGTTGTTATCACTTGCCGTAAGACACTTTGGCTGGGTTGAAGTTCTGCACGTAGAAGCAAAAGGC was 0.369.
As for GAGACCGCAACTGAAAAGTTGTTATCACTTGCCGTAAGACACTTTCGATGGGTTGAAGTTCTGCACGTAGAAGCAAAAGGC, the fraction ligated came to 0.717.
As to GAGACCGCAACTGAAAAGTTGTTATCACTTGCCGTAAGACACTTTTGATGGGTTGAAGTTCTGCACGTAGAAGCAAAAGGC, the fraction ligated was determined as 0.729.
For the variant GAGACCGCAACTGAAAAGTTGTTATCACTTGCCGTAAGACACTTTAGATGGGTTGAAGTTCTGCACGTAGAAGCAAAAGGC, the fraction ligated turned out to be 0.763.
As to GAGACCGCAACTGAAAAGTTGTTATCACTTGGCGTAAGACACTTTGGATGGGTTGAAGTTCTGCACGTAGAAGCAAAAGGC, the fraction ligated worked out at 0.828.
The value for GAGACCGCAACTGAAAAGTTGTTATCACTTGCCGTAAGACACTTTGGATGGGTTGAAGTTCTGCACGTAGAAGCAAAAGGC was 0.803; that for GAGACCGCAACTGAAAAGTTGTTATCACTTGCCGTAAGACACTTTGGACGGGTTGAAGTTCTGCACGTAGAAGCAAAAGGC was 0.193.
In the case of GAGACCGCAACTGAAAAGTTGTTATCACTTGCCGTAAGACACTTTGGAAGGGTTGAAGTTCTGCACGTAGAAGCAAAAGGC, the fraction ligated came out at 0.512.
For the variant GAGACCGCAACTGAAAAGTTGTTATCACTTGCCGTAAGACACTTTGGAGGGGTTGAAGTTCTGCACGTAGAAGCAAAAGGC, the fraction ligated is 0.647.
Consider GAGACCGCAACTGAAAAGTTGTTATCACTTGCCGTTAGACACTTTGGATGGGTTGAAGTTCTGCACGTAGAAGCAAAAGGC, for which the fraction ligated turned out to be 0.803.
For the variant GAGACCGCAACTGAAAAGTTGTTATCACTTGCCGTCAGACACTTTGGATGGGTTGAAGTTCTGCACGTAGAAGCAAAAGGC, the fraction ligated was found to be 0.795.
In the case of GAGACCGCAACTGAAAAGTTGTTATCACTTGCCGTGAGACACTTTGGATGGGTTGAAGTTCTGCACGTAGAAGCAAAAGGC it was 0.786; in that of GAGACCGCAACTGAAAAGTTGTTATCACTTGCCGTACGACACTTTGGATGGGTTGAAGTTCTGCACGTAGAAGCAAAAGGC, 0.79; in that of GAGACCGCAACTGAAAAGTTGTTATCACTTGCCGTAGGACACTTTGGATGGGTTGAAGTTCTGCACGTAGAAGCAAAAGGC, 0.815.
The value for GAGACCGCAACTGAAAAGTTGTTATCACTTGCCGTATGACACTTTGGATGGGTTGAAGTTCTGCACGTAGAAGCAAAAGGC was 0.78; that for GAGACCGCAACTGAAAAGTTGTTATCACTTGACGTAAGACACTTTGGAGGGGTTGAAGTTCTGCACGTAGAAGCAAAAGGC was 0.618.
The value for GAGACCGCAACTGAAAAGTTGTTATCACTTGACGTAAGACACTTTGGACGGGTTGAAGTTCTGCACGTAGAAGCAAAAGGC was 0.223; that for GAGACCGCAACTGAAAAGTTGTTATCACTTGCCGTAAGACACTTTGGATGGGTTGATGTTCTGCACGTAGAAGCAAAAGGC was 0.775; that for GAGACCGCAACTGAAAAGTTGTTATCACTTGCCGTAAGACACTTTGGATGGGTTGAGGTTCTGCACGTAGAAGCAAAAGGC was 0.781.
With GAGACCGCAACTGAAAAGTTGTTATCACTTGCCGTAAGACACTTTGGATGGGTTGACGTTCTGCACGTAGAAGCAAAAGGC, the fraction ligated is 0.76.
In the case of GAGACCGCAACTGAAAAGTTGTTATCACTTGCCGTAAAACACTTTGGATGGGTTGAAGTTCTGCACGTAGAAGCAAAAGGC it was 0.794.
As to GAGACCGCAACTGAAAAGTTGTTATCACTTGCCGTAATACACTTTGGATGGGTTGAAGTTCTGCACGTAGAAGCAAAAGGC, the fraction ligated was found to be 0.768.
On to GAGACCGCAACTGAAAAGTTGTTATCACTTGCCGTAACACACTTTGGATGGGTTGAAGTTCTGCACGTAGAAGCAAAAGGC, for which the fraction ligated was determined as 0.777.
The value for GAGACCGCAACTGAAAAGTTGTTATCACTTGCCGTAAGAAACTTTGGATGGGTTGAAGTTCTGCACGTAGAAGCAAAAGGC was 0.771; that for GAGACCGCAACTGAAAAGTTGTTATCACTTGCCGTAAGAGACTTTGGATGGGTTGAAGTTCTGCACGTAGAAGCAAAAGGC was 0.743; that for GAGACCGCAACTGAAAAGTTGTTATCACTTGCCGTAAGATACTTTGGATGGGTTGAAGTTCTGCACGTAGAAGCAAAAGGC was 0.786.
In the case of GAGACCGCAACTGAAAAGTTGTTATCACTTGCCGTAAGACTCTTTGGATGGGTTGAAGTTCTGCACGTAGAAGCAAAAGGC it was 0.776; in that of GAGACCGCAACTGAAAAGTTGTTATCACTTGCCGTAAGACGCTTTGGATGGGTTGAAGTTCTGCACGTAGAAGCAAAAGGC, 0.709; in that of GAGACCGCAACTGAAAAGTTGTTATCACTTGCCGTAAGACCCTTTGGATGGGTTGAAGTTCTGCACGTAGAAGCAAAAGGC, 0.755.
As to GAGACCGCAACTGAAAAGTTGTTATCACTTGGCGTCAGACACTTTGGATGGGTTGAAGTTCTGCACGTAGAAGCAAAAGGC, the fraction ligated came out at 0.798.
The value for GAGACCGCAACTGAAAAGTTGTTATCACTTGCCGTAAGCCACTTTGGATGGGTTGAAGTTCTGCACGTAGAAGCAAAAGGC was 0.772; that for GAGACCGCAACTGAAAAGTTGTTATCACTTGCCGTAAGTCACTTTGGATGGGTTGAAGTTCTGCACGTAGAAGCAAAAGGC was 0.778; that for GAGACCGCAACTGAAAAGTTGTTATCACTTGCCGTAAGGCACTTTGGATGGGTTGAAGTTCTGCACGTAGAAGCAAAAGGC was 0.852.
In the case of GAGACCGCAACTGAAAAGTTGTTATCACTTGCCGTAAGACACTTGGGATGGGTTGAAGTTCTGCACGTAGAAGCAAAAGGC it was 0.109.
For GAGACCGCAACTGAAAAGTTGTTATCACTTGCCGTAAGACACTTAGGATGGGTTGAAGTTCTGCACGTAGAAGCAAAAGGC, the fraction ligated is 0.726.
Regarding GAGACCGCAACTGAAAAGTTGTTATCACTTGCCGTAAGACACTTCGGATGGGTTGAAGTTCTGCACGTAGAAGCAAAAGGC, the fraction ligated worked out at 0.217.
In the case of GAGACCGCAACTGAAAAGTTGTTATCACTTGCCGTAAGACACTGTGGATGGGTTGAAGTTCTGCACGTAGAAGCAAAAGGC it was 0.793; in that of GAGACCGCAACTGAAAAGTTGTTATCACTTGCCGTAAGACACTCTGGATGGGTTGAAGTTCTGCACGTAGAAGCAAAAGGC, 0.756.
In the case of GAGACCGCAACTGAAAAGTTGTTATCACTTGCCGTAAGACACTATGGATGGGTTGAAGTTCTGCACGTAGAAGCAAAAGGC it was 0.751.
